The results in this text go back to patent US20100143371A1 (published 2010).

Assay [1] concerns the target T1, GST-Etk kinase domain (human, UniProt P51813 417-675).
T1 construct: Soluble fusion protein expressed in SF21 cells by baculovirus, purified on glutathione beads; also called recombinant Etk; not shown: Glutathione-S-transferase (GST) fusion partner of the pBac vector (Pharmingen)
As to the kind of experiment: ELISA, purified domain antibody on immobilised GST-Etk, anti-Myc-HRP detection. On the procedure: Quantitative Etk binding assay. Various concentrations of purified domain antibodies were added into a Maxi-sorp 96 well microtiter plate coated with 100 μl/well of 1 μg/ml GST-Etk and incubated for 1 h at RT. The plate was washed 3 times with PBST and then incubated with 100 μl/well of anti-Myc-HRP conjugate (1:5000 dilution) for 1 h at RT. The plate was washed 5 times, TMB peroxidase substrate was added and the absorbance at 450 nm was measured.
The antibody concentration required for 50% of maximum binding to Etk was 5 nM and 8 nM for L9 and L11, respectively, and approximately 20 nM for L5, L7, L12 and L15. […] Consistent with the binding data, all 6 domain antibodies blocked Etk enzymatic activity dose-dependently, as indicated by the reduction in the ability of recombinant Etk to phosphorylate the substrate, polyEY, in the presence of the domain antibodies (FIG. 2C).

Assay [2] deals with T1, GST-Etk kinase domain. As to the kind of experiment: cell-based or functional assay.
Assay [3] has as its target T2, endogenous Etk of NSR cells (mouse, UniProt P97504 1-651).
T2 sequence (looked up): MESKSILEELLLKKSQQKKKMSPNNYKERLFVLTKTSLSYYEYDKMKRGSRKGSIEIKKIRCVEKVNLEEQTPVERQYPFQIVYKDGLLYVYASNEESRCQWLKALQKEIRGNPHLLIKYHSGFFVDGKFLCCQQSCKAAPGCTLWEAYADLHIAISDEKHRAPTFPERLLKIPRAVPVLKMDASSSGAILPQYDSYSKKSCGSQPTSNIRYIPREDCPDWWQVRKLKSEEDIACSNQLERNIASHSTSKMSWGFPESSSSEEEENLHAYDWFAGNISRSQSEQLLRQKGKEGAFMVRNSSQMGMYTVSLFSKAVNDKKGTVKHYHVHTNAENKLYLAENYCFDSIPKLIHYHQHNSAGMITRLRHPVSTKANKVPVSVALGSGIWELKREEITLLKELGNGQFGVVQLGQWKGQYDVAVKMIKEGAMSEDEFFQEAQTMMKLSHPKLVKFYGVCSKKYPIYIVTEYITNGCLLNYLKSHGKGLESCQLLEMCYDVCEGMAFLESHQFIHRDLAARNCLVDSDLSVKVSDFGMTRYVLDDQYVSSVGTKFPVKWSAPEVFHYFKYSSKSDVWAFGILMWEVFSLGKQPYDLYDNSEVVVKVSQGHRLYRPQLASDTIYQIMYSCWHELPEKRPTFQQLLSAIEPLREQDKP
Description: cell-based or functional assay.

Assay [4] deals with T2, endogenous Etk of NSR cells. As to the kind of experiment: co-immunoprecipitation from NSR cell lysate (protein L or anti-Etk), western blot. How it is done: Western immunoblotting and immunoprecipitation. Cells from a 150 mm dish were harvested in 1 ml lysis buffer containing 25 mM Tris-HCl pH 7.4, 2 mM sodium orthovanadate, 0.5 mM EDTA, 10 mM NaF, 10 mM sodium pyrophosphate, 25 mM NaCl and 1% Tx-100 supplemented with 1:1000 dilution of protease inhibitor cocktail. Cells were frozen and thawed twice, centrifuged and supernatant was collected. Samples of 50 μg protein extract were resolved by SDS-PAGE under reducing conditions, and transferred onto nitrocellulose membrane for western immunoblotting with the indicated antibodies. For immunoprecipitation, 0.5 mg of protein extracts were incubated with either protein L beads or anti-Etk antibodies coupled to protein A bead overnight at 4° C. The immunocomplex was washed 4 times with PBST and twice with 50 mM Hepes, pH 7.5, electrophored on an SDS-polyacrylamide gel under reducing conditions, and transferred onto nitrocellulose membrane for western immunoblotting with the indicated antibodies. In addition, the immunocomplex was also used as the source for enzyme (Etk kinase) in the in vitro kinase activity and autophosphorylation assays described below.
This was further confirmed when the cell lysate was immunoprecipitated with an anti-Etk antibody followed by blotting with an anti-c-Myc antibodies (FIG. 3C).

T1 sequence (P51813 417-675): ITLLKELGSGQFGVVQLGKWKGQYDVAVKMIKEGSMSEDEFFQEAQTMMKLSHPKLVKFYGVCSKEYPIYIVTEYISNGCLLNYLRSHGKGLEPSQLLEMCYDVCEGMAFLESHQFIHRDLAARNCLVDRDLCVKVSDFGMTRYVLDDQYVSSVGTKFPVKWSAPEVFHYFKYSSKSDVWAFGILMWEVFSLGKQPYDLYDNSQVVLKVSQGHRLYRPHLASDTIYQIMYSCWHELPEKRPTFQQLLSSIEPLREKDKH

B1: L5 soluble single domain antibody (antibody, V domains shown)
VL: DIQMTQSPSSLSASVGDRVTITCRASQGIKMKLNWYQQKPGKAPKLLIYNTSHLQSGVPSRFSGSGSGTDFTLTISSLQPEDFATYYCQQHKTRPDTFGQGTKVEIKR
notes: Single human kappa light chain variable domain (domain antibody), expressed from pDOM5 in E. coli BL21, purified on protein L, about 15 kDa; the tie to L5 rests on the order of the list and the numbering (CDRs 4, 6, 8 follow 2); not shown: c-Myc tag (detected with anti-Myc-HRP)
In general, EC50 refers to the concentration needed to bring the measured effect to its halfway point. The low end stands for greater potency, the high end for weaker potency. The molecule B1 gave an EC50 with GST-Etk kinase domain [1] of approximately 20 nM. Moreover, the “domain antibody concentration required to achieve 50% inhibition of Etk kinase activity (polyEY substrate, ELISA-based in vitro kinase assay)” value in the assay with GST-Etk kinase domain [2] was approximately 20 nM.

B2: K5 intrabody (L5 expressed from pcDNA3.1-L5 in NSR cells) (antibody, V domains shown, not shown: small tags and cut ends)
VL: DIQMTQSPSSLSASVGDRVTITCRASQGIKMKLNWYQQKPGKAPKLLIYNTSHLQSGVPSRFSGSGSGTDFTLTISSLQPEDFATYYCQQHKTRPDTFGQGTKVEIKR
For B2, in assay [3], the “in vitro autophosphorylation of immunoprecipitated Etk, percent of the wild-type enzyme (from NSR cells) activity retained” value was approximately 49% and the “in vitro kinase assay of Etk/intrabody immunocomplexes on polyEY, percent of activity of Etk derived from NSR cells” value is approximately 25%.

B3: L9 soluble single domain antibody (antibody, V domains shown)
VL: DIQMTQSPSSLSASVGDRVTITCRASQAIKNKLGWYQQKPGKAPKLLIYKASYLQSGVPSRFSGSGSGTDFTLTISSLQPEDFATYYCQQMKSRPNTFGQGTKVEIKR
notes: Single human kappa light chain variable domain, from pDOM5 in E. coli BL21, protein L purified; not shown: c-Myc tag (detected with anti-Myc-HRP)
B3 gave an EC50 with GST-Etk kinase domain [1] of 5 nM. Also, in the assay with GST-Etk kinase domain [2], the “domain antibody concentration required to achieve 50% inhibition of Etk kinase activity (polyEY substrate, ELISA-based in vitro kinase assay)” value was approximately 20 nM.

B4: L15 soluble single domain antibody (antibody, V domains shown)
VL: DIQMTQSPSSLSASVGDRVTITCRASQNIKTKLNWYQQKPGKAPKLLIYRVSTLQSGVPSRFSGSGSGTDFTLTISSLQPEDFATYYCQQTKKRPFTFGQGTKVEIER
notes: as for B3
B4 returned an EC50 with GST-Etk kinase domain [1] of approximately 20 nM.

B5: K15 intrabody (L15 expressed from pcDNA3.1-L15 in NSR cells) (antibody, V domains shown)
VL: DIQMTQSPSSLSASVGDRVTITCRASQNIKTKLNWYQQKPGKAPKLLIYRVSTLQSGVPSRFSGSGSGTDFTLTISSLQPEDFATYYCQQTKKRPFTFGQGTKVEIER
notes: band of 12 kDa; not shown: c-Myc tag (detected with anti-c-Myc antibody)
As to B5, the binding result in assay [4] was “no binding”.

B6: K9 intrabody (L9 expressed from pcDNA3.1-L9 in NSR cells) (antibody, V domains shown, not shown: small tags and cut ends)
VL: DIQMTQSPSSLSASVGDRVTITCRASQAIKNKLGWYQQKPGKAPKLLIYKASYLQSGVPSRFSGSGSGTDFTLTISSLQPEDFATYYCQQMKSRPNTFGQGTKVEIKR
On to B6, for which, in assay [3], the “in vitro autophosphorylation of immunoprecipitated Etk, percent of the wild-type enzyme (from NSR cells) activity retained” value was approximately 38% and the “in vitro kinase assay of Etk/intrabody immunocomplexes on polyEY, percent of activity of Etk derived from NSR cells” value was approximately 25%.

B7: K7 intrabody (L7 expressed from pcDNA3.1-L7 in NSR cells) (antibody, V domains shown, not shown: small tags and cut ends)
VL: DIQMTQSPSSLSASVGDRVTITCRASQRIFTRLEWYQQKPGKAPMLLIYNVSHLQSGVPSRFSGSGSGTDFTLTISSLQPEDFATYYCQQTEIIPITFGQGTKVEIKQ
Consider B7, for which, in assay [3], the “in vitro autophosphorylation of immunoprecipitated Etk, percent of the wild-type enzyme (from NSR cells) activity retained” value was approximately 37% and the “in vitro kinase assay of Etk/intrabody immunocomplexes on polyEY, percent of activity of Etk derived from NSR cells” value is approximately 25%.

B8: L11 soluble single domain antibody (antibody, V domains shown)
VL: DIQMTQSPSSLSASVGDRVTITCRASQWIFTELAWYQQKPGKAPKLLIYNASYLQSGVPSRFSGSGSGTDFTLTISSLQPEDFATYYCQQTFTPPITFGQGTKVEIKR
notes: Tie to L11 rests on list order and numbering; not shown: c-Myc tag (detected with anti-Myc-HRP)
On to B8, for which the EC50 with GST-Etk kinase domain [1] amounted to 8 nM. Besides, in the assay with GST-Etk kinase domain [2], the “domain antibody concentration required to achieve 50% inhibition of Etk kinase activity (polyEY substrate, ELISA-based in vitro kinase assay)” value was approximately 40 nM.

B9: K11 intrabody (L11 expressed from pcDNA3.1-L11 in NSR cells) (antibody, V domains shown, not shown: small tags and cut ends)
VL: DIQMTQSPSSLSASVGDRVTITCRASQWIFTELAWYQQKPGKAPKLLIYNASYLQSGVPSRFSGSGSGTDFTLTISSLQPEDFATYYCQQTFTPPITFGQGTKVEIKR
B9: in assay [3], the “in vitro autophosphorylation of immunoprecipitated Etk, percent of the wild-type enzyme (from NSR cells) activity retained” value was approximately 30% and the “in vitro kinase assay of Etk/intrabody immunocomplexes on polyEY, percent of activity of Etk derived from NSR cells” value is approximately 25%.

B10: L7 soluble single domain antibody (antibody, V domains shown)
VL: DIQMTQSPSSLSASVGDRVTITCRASQRIFTRLEWYQQKPGKAPMLLIYNVSHLQSGVPSRFSGSGSGTDFTLTISSLQPEDFATYYCQQTEIIPITFGQGTKVEIKQ
notes: as for B3
B10: the 50% effective concentration (EC50) in the assay with GST-Etk kinase domain [1] was approximately 20 nM. Moreover, in the assay with GST-Etk kinase domain [2], the “domain antibody concentration required to achieve 50% inhibition of Etk kinase activity (polyEY substrate, ELISA-based in vitro kinase assay)” value was approximately 20 nM.

B11: L12 soluble single domain antibody (antibody, V domains shown)
VL: DIQMTQSPSSLSASVGDRVTITCRASQWIFDRLHWYQQKPGKAPTLLIYNSSTLQSGVPSRFSGSGSGTDFTLTISSLQPEDFATYYCQQTKSRPSTFGQGTKVEIKR
notes: as for B3
In turn, B11 returned an EC50 with GST-Etk kinase domain [1] of approximately 20 nM. Moreover, the “domain antibody concentration required to achieve 50% inhibition of Etk kinase activity (polyEY substrate, ELISA-based in vitro kinase assay)” value in the assay with GST-Etk kinase domain [2] was approximately 20 nM.
